This is an account of results in article PMC6708486 (Nature chemistry, 2019).

The series “AUC” concerns the molecule itself. In words: AUC.
The series “crystal structure” concerns the molecule itself. In words: crystal structure.

Numbering of substitutions follows the chain as printed. In names and notes the source's numbering stands. Several values for one entry are separate records, joined by “and”; a condition that tells them apart may be missing. Equal entries are not always repeated.

B1: LepI (enzyme)
chain: ETVAAIKTLIQQLAQSTDQFGRAEINDALRELQYSLETPFDTVMRMSLDTCQVAVARIGSDLGLFKHLSQCASPQSAEELADHLGCGRELMSRLLRYMASVRMVQQTDDIKYISSNITQTLAVPGLEAGMRHAFENLWPVLMALPDFLAERKYPDIVDAKDTAFQKAFNTDQDCFHWLATQPTRIANFKVLLTDERTPNFLSTFPLEKELGSWSAEPEKALFVDIGGGMGHACIRLREKYPNQPGRVILQDLPPVLQAAQATLPLSGIESMPHNFHTPQPVQGAKFYFLRLILRDFPDHQALEILQNIVPAMDAESRIVIDDGVPPEKGARWAETGTDICIMSALGSKERTQRQWEELAAKAGLQLQALYQYTWPVVNAAMVFSLQ
In general, stoichiometry N refers to a count of units in the complex or per binding partner. As for B1, the “stoichiometry N” value in the series “AUC” is 2 and 4.

B2: LepI (C52A) (enzyme)
chain: B1 chain with C51A
On to B2, for which the binding result in “crystal structure” is on record as “binds”.
